Laboratory results from publication PMC3393750, “Small Molecule Inhibitors of the LEDGF Site of Human Immunodeficiency Virus Integrase Identified by Fragment Screening and Structure Based Design” (PLoS ONE, 2012).

B1: Untagged LEDGF (natural protein)
chain: not shown
notes: lens epithelium derived growth factor (LEDGF/p75), coded by the PSIP1 gene; source: E. coli, purified as described for FLAG-LEDGF
B2: Hexa-His tagged full length HIV IN (enzyme)
chain: FLDGIDKAQEEHEKYHSNWRAMASDFNLPPVVAKEIVASCDKCQLKGEAMHGQVDCSPGIWQLDCTHLEGKVILVAVHVASGYIEAEVIPAETGQETAYFLLKLAGRWPVKTVHTDNGSNFTSTTVKAACWWAGIKQEFGIPYNPQSQGVIESMNKELKKIIGQVRDQAEHLKTAVQMAVFIHNFKRKGGIGGYSAGERIVDIIATDIQTKELQKQITKIQNFRVYYRDSRDPVWKGPAKLLWKGEGAVVIQDNSDIKVVPRRKAKIIRDYGKQMAGDDCVASRQDED
notes: HIV-1 integrase, the cut product of the Gag-Pol polyprotein; also called His6-tagged IN; HIV integrase; source: E. coli BL21(DE3), purified (nickel HiTrap column)

Legend:
[1] = target: B2; experiment: AlphaScreen or HTRF; His6-tagged IN (30 nM) on Ni-chelate donor beads, Flag-tagged LEDGF (30 nM) on anti-FLAG acceptor beads; 25 mM Tris-Cl pH 7.5, 25 mM NaCl, 5 mM MnCl2, 5 mM MgCl2, 5 mM BME, 50 ug/ml BSA, 0.05% Tween-20; 1 hour at 30°C; competition with untagged LEDGF; conditions: both partners purified
[2] = target: T1, FLAG epitope tagged LEDGF protein (UniProt O75475 1-530); experiment: as above; conditions: both partners purified
T1 construct: lens epithelium derived growth factor (LEDGF/p75), coded by the PSIP1 gene; also called FLAG-LEDGF; Flag-tagged LEDGF; source: E. coli BL21(DE3), purified (heparin column, SP column); not shown: FLAG, N-terminal, kept

Binder | percent reduction of the AlphaScreen signal at a 1:1 molar ratio with FLAG-LEDGF [1] | binding result [2]
B1 | 50% | –
B2 | – | binds
